These results are taken from patent publication US20030078221, “High affinity nucleic acid ligands of complement system proteins” (Gilead Sciences, Inc., published 2003).

As usually defined, the Kd is a measure of binding affinity in units of concentration.

Data set [1] addresses T1, Complement C5 (Homo sapiens, UniProt P01031;P01031 P01031:19-673,P01031:678-1676). In words: filter; MgPBS 37C. To be noted: tags: Quidel. As for the experimental part:
(§1) Individual cloned DNA was T7 transcribed with α-[³²P]-ATP and the full length [³²P]-2′-NH₂-RNA or 2′-F-RNA was gel-purified (as above). RNA was suspended at approximately 5,000 cpm per 30 μL sample (<10 pM), and aliquots were incubated with various concentrations of C1q, C3 or C5 in MgPBS for 10 minutes at 37° C. Samples were then filtered through nitrocellulose, the filters washed with buffer and dried under an infrared lamp, and counted with addition of scintillation fluid (Ecoscint A, National Diagnostics, Atlanta, Ga.). A background sample of RNA alone was run in parallel. […] Filters were washed and counted.
(§2) Sequences were grouped according to homology and function.

Data set [2] deals with T1, Complement C5. Description: filter; Group I affinities stated very similar. To be noted: tags: Quidel. How it is done:
as §1, §2

Data set [3] has as its target T2, Complement C1q (UniProt P02745;P02746;P02747 P02745:23-245,P02746:28-253,P02747:29-245). In words: FP; nitrocellulose filter binding, MgPBS 37C. Conditions: tags: Quidel; chain copies: 6. As for the experimental part:
as §1

The target in data set [4] is T2, Complement C1q. Description: filter; above background at 0.1 and 0.5 nM C1q. To be noted: tags: Quidel; chain copies: 6.
Data set [5] addresses T1, Complement C5. In words: filter; minimal binding truncate. To be noted: tags: Quidel; stem-loop with UUU bulge. How it is done: as §1
The target of data set [6] is T1, Complement C5. In words: filter; reduced binding. To be noted: tags: Quidel.
The target in data set [7] is T2, Complement C1q. In words: filter; MgPBS 37C; SEQ 12 in listing differs from Table 2 near the 3' end. Conditions: tags: Quidel; chain copies: 6. How it is done: as §1
The target of data set [8] is T1, Complement C5. In words: filter. Conditions: tags: Quidel.
The target in data set [9] is T2, Complement C1q. In words: filter; MgPBS 37C. Conditions: tags: Quidel; chain copies: 6. How it is done:
as §1

Data set [10] has as its target T2, Complement C1q. Description: filter; above background; SEQ 13 in listing differs from Table 2 near the 3' end. To be noted: tags: Quidel; chain copies: 6.
For data set [11], the target named is T1, Complement C5. Description: filter; >10-fold over background at 100 and 10 nM C5; 2'-OMe interference. To be noted: tags: Quidel. An excerpt: The partially substituted 2′-OMe oligonucleotides were 5′-[³²P] -kinase-labeled. […] The oligonucleotides were eluted from the protein, alkaline hydrolyzed and then run on a 20% acrylamide/7 M urea/TBE sequencing gel. On adjacent tracks were run oligonucleotides not selected with C5. Band intensities were quantitated with on an Instantlmager (Packard, Meriden, Conn.).

Where a chain is given by its changes, count along the chain named.

T2 sequence (P02745 23-245, chain 1 of 3): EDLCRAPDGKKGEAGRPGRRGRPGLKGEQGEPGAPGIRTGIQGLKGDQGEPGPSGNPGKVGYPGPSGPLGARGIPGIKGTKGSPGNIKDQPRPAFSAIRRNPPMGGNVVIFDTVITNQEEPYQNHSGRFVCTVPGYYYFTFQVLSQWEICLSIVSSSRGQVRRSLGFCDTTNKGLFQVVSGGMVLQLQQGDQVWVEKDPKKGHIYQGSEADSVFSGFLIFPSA
T2 sequence (P02746 28-253, chain 2 of 3): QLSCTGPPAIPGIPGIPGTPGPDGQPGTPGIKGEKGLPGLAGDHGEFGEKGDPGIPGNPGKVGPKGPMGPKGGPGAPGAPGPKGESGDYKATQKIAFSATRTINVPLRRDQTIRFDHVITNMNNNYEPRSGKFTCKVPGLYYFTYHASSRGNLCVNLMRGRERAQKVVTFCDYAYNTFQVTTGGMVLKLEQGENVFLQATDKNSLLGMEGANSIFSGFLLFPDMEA
T2 sequence (P02747 29-245, chain 3 of 3): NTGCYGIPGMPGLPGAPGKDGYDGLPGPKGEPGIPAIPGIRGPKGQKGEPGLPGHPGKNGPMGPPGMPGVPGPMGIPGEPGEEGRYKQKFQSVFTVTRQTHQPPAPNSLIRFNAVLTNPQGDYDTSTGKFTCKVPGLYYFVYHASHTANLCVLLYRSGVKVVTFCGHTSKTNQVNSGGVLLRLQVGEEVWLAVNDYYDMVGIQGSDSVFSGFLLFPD

B1: F8 (ssRNA)
RNA: GGGAGGACGAUGCGGUCUCAUGCGCCGAGUGUGAGUUUACCUUCGUCAGACGACUCGCCCGA
modifications: 2'-F pyrimidines
In data set [1], B1 gave a Kd of 0.03 µM.

B2: H1 (ssRNA)
RNA: B1 RNA with U18G, C19G, G31C, G33C, A34C
modifications: 2'-F pyrimidines
Consider B2, for which the binding result in data set [2] was “binds”.

B3: K7 (ssRNA)
RNA: B1 RNA with C25U, C40A, U43G
modifications: 2'-F pyrimidines
As for B3, in data set [2], the binding result is reported as “binds”.

B4: G7 (ssRNA)
RNA: B1 RNA with C19G, A20C, G22A, C26U, U32G, G33C, A34U
modifications: 2'-F pyrimidines
As to B4, in data set [2], the binding result is “binds”.

B5: C1q clone 36 (ssRNA)
RNA: GGGAGGACGAUGCGGGAGGAGUGGAGGUAAACAAUAGGCCGGUAGCGACUCCCACUAACAGCCUCAGACGACUCGCCCGA
modifications: 2'-NH2 pyrimidines
Turning to B5, binding in data set [3] was characterised by a dissociation constant (Kd) of 0.00029 µM.

B6: C1q clone 12 (ssRNA)
RNA: B5 RNA with A17U, C39U, C55G, A60G
modifications: 2'-NH2 pyrimidines
In the case of B6, in [4], the binding result is “binds”.

B7: C1q clone 47 (ssRNA)
RNA: GGGAGGACGAUGCGGGUGGAGCGGAGGUUUAUACGGCUGGUAGCUCGAGCUCCCUAACACGCGGUAGACGACUCGCCCGA
modifications: 2'-NH2 pyrimidines
With B7, the binding result in data set [4] is “binds”.
With CGAUGCGGUCUCAUGCGUCGAGUGUGAGUUUACCUUCG (ssRNA, 2'-F pyrimidines) [C6 38mer truncate], binding in data set [5] was characterised by a dissociation constant (Kd) of 0.02 µM.

B8: C1q clone 40 (ssRNA)
RNA: GGGAGGACGAUGCGGCUGGUAGCAUGUGCAUUGAUGGGAGGAGUGGAGGUCACCGUCAACCGUCAGACGACUCGCCCGA
modifications: 2'-NH2 pyrimidines
Regarding B8, the binding result in [4] is listed as “binds”.
GAUGCGGUCUCAUGCGUCGAGUGUGAGUUUACCUUC (ssRNA, 2'-F pyrimidines) [C6 36mer truncate] had a Kd in [6] of 0.05 µM.

B9: C1q clone 50 (ssRNA)
RNA: GGGAGGACGAUGCGGGUGGAGUGGAGGUAUAACGGCCGGUAGCGCAUCCCACUCGGGUCUGUGCUAGACGACUCGCCCGA
modifications: 2'-NH2 pyrimidines
As to B9, in [7], binding was put at a Kd of 0.000979 µM.

B10: C1q clone 23c (ssRNA)
RNA: GGGAGGACGAUGCAAGUGGAGUGGAGGUAUAACGGCCGGUAGGCAUCCCACUCGGGCCUAGCUCAGACGACUCGCCCGA
modifications: 2'-NH2 pyrimidines
As to B10, the binding result in data set [4] is given as “binds”.

B11: YL-14 (ssRNA)
RNA: GGGAGAUAAGAAUAAACGCUCAAGUACGACGCGGUCCCGUGCGUGGAGUGCGGGUUUACCUUCGUAUUCGACAGGAGGCUCACAACAGGC
modifications: 2'-F pyrimidines
Take B11: in data set [8], the affinity, expressed as Kd, was 0.025 µM.

B12: C1q clone 33 (ssRNA)
RNA: GGGAGGACGAUGCGGGUUGCUGGUAGCCUGAUGUGGGUGGAGUGAGUGGAGGGUUGAAAAAUGCAGACGACUCGCCCGA
modifications: 2'-NH2 pyrimidines
For the molecule B12, the dissociation constant Kd in data set [9] came out at 0.00385 µM.

B13: C1q clone 14 (ssRNA)
RNA: GGGAGGACGAUGCGGCACCUCACCUCCAUAUUGCCGGUUAUCGCGUAGGGUGAGCCCAGACACGACAGACGACUCGCCCGA
modifications: 2'-NH2 pyrimidines
Take B13: in data set [9], the dissociation constant (Kd) was determined as 0.0024 µM.

B14: E5c/E11 (ssRNA)
RNA: GGGAGGACGAUGCGGUCCGGCGCGCUGAGUGCCGGUUAUCCUCGUCAGACGACUCGCCCGA
modifications: 2'-F pyrimidines
B14: the Kd in data set [1] amounted to 0.06 µM.

B15: A6 (ssRNA)
RNA: GGGAGGACGAUGCGGUCCGGCGCGCUGAGUGCCGGUUUAUCCUCGUCAGACGACUCGCCCGA
modifications: 2'-F pyrimidines
Take B15: binding in [1] was characterised by a dissociation constant (Kd) of 0.035 µM.

B16: YL-79 (ssRNA)
RNA: GGGAGAUAAGAAUAAACGCUCAAGAACCACGCGGUCUCAGGCGUAGAGUCUGAGUUUACCUUGGUUUUCGACAGGAGGCUCACAACAGGC
modifications: 2'-F pyrimidines
As to B16, binding in [8] was characterised by a dissociation constant (Kd) of 0.015 µM.

B17: YL-13 (ssRNA)
RNA: B16 RNA with A25G, C28G, A29C, U44C, A45U, U62G, G63C, U66C
modifications: 2'-F pyrimidines
Consider B17, for which the Kd in data set [8] is 0.006 µM.

B18: C1q clone 22 (ssRNA)
RNA: GGGAGGACGAUGCGGGCAUAGUGGGCAUCCCAGGGUUGCCUAACGGCAUCCGGGGUUGUUAUUGGCAGACGACUCGCCCGA
modifications: 2'-NH2 pyrimidines
Turning to B18, the binding result in data set [4] was “binds”.

B19: C1q clone 45 (ssRNA)
RNA: GGGAGGACGAUGCGGUGGAGUGGAGGUAUACCGGCCGGUAGCGCAUCCCACUCGGGUCUGUGCUCAGACGACUCGCCCGA
modifications: 2'-NH2 pyrimidines
Turning to B19, in [9], the affinity, expressed as Kd, was 0.00138 µM.

B20: C1q clone 78 (ssRNA)
RNA: GGGAGGACGAUGCGGGUGGAGUGGAGGGUAAACAAUGGCUGGUGGCAUUCGGAAUCUCCCAACGUAGACGACUCGCCCGA
modifications: 2'-NH2 pyrimidines
B20: the binding result in data set [10] is given as “binds”.
In the case of GGGAGGAGGAUCGGUGUUCAGCAUUCAGAUCUUCAGACGACUCGCCCGA (ssRNA, 2'-F pyrimidines) [E4c], in data set [1], the dissociation constant Kd worked out at 0.05 µM.

B21: C1q clone 43 (ssRNA)
RNA: GGGAGGACGAUGCGGUUUCUCGGCCAGUAGUUUGCGGGUGGAGUGGAGGUAUAUCUGCGUCCUCGCAGACGACUCGCCCGA
modifications: 2'-NH2 pyrimidines
Take B21: in data set [4], the binding result is listed as “binds”.
In the case of CGCCGCGGUCUCAGGCGCUGAGUCUGAGUUUACCUGCG (ssRNA, 2'-F pyrimidines; selected purines 50% 2'-OMe) [M3010], the binding result in data set [11] is “binds”.
In the case of CGCCGCGGUCUCGGGCGCUGAGUCUGAGUUUACCUGCG (ssRNA, 2'-F pyrimidines; selected purines 50% 2'-OMe) [M3020], the binding result in [11] is listed as “binds”.
The same measure, in the same setting: to CGCCGCGGUCUCAGGCGCUGAGUCUGAGUUUACCUGCG (ssRNA, 2'-F pyrimidines; selected purines 50% 2'-OMe) [M3030] belongs “binds”.

B22: C9 (ssRNA)
RNA: GGGAGGACGAUGCGGUGAGCGUGUAAAACGGUUUCGAUAGAGCCUCAGACGACUCGCCCGA
modifications: 2'-F pyrimidines
As for B22, the equilibrium dissociation constant (Kd) in data set [1] was determined as 0.045 µM.

B23: C1q clone 30 (ssRNA)
RNA: GGGAGGACGAUGCGGGUGGAGUGGGGAUCAUACGGCUGGUAGCACGAGCUCCCUAACAGCGGUCAGACGACUCGCCCGA
modifications: 2'-NH2 pyrimidines
B23: the binding result in data set [4] is listed as “binds”.

B24: C1q clone 3 (ssRNA)
RNA: GGGAGGACGAUGCGGGAGGAGUGGAGGUAAACAAUAGGUCGGUAGCGACUCCCACUAACAGGCCUCAGACGACUCGCCCGA
modifications: 2'-NH2 pyrimidines
Consider B24, for which the binding result in data set [4] is “binds”.

B25: YL-56 (ssRNA)
RNA: GGGAGAUAAGAAUAAACGCUCAAGGUACACGCGGUCUGACGCGCUGAGUGUCAGUUUACCUUGUACUUCGACAGGAGGCUCACAACAGGC
modifications: 2'-F pyrimidines
In the case of B25, the Kd in data set [8] came to 0.012 µM.
